Experiment: soluble fraction after stress (log2 fold change); higher = more stays soluble; pooled small domains, quantitative proteomics
Conditions: stress: pH 4
Method in brief: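 Values are on a log2 scale, where higher means more of the domain stayed soluble after pH 4 stress. They are fold changes in the soluble amount of each domain from pooled custom libraries, measured by high-throughput quantitative proteomics. The fold change is taken to reflect aggregation propensity.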

| Sequence | soluble fraction (log2) |
| --- | --- |
| HMDAYLPETVQKLLDVMDFDVPYSAAQLMEKLGLKSRASFRKLYLLPALEKNLIAMGVPDKPTSRNQTYIR | 0.169 |
| HMNPFTHEEINLMSIYNAAGTREGLIAALTEMWGYLDAEETELRELADSALAKLRGITDAEYAALELE | -2.05 |
| HMEYYWHQLKGLEVVNTRGESLGRVRRLLETGANDVLVLEGEQERLIPYVPDTIKQVDLAKGLIEVAWDRD | -1.23 |
| HMDRENNITAGREILEKELSRLALNMKMVNLQDYAARFNVKHSDDILAGIGAGDIRPAHIVNAIAEKLT | -0.304 |
| HMGMEENLLKERKQILMDIMKSKEYQPMKVKELAMVLNVPKEDREELRYVLNELMNEGKIVESKKGKFSIA | 0.0605 |
| HMHANSDVEQLMQMGIQRLNFQRYSDALLIFNQIIENFPDYAEAWNKRATLHYLLGNLDKSIADIEQTLE | -1.54 |
| HMDFLKSVDLSKYSKVESLILSHLSKGDFDIDDFIRSFSLGTDEVTRAIVSLEIEGIILRKGNRIFRKKS | 0.0153 |
| HMSLPTYVQISEAIARRITAGQWLDGERLPPERTMAAEFGVAVGTLRKALSRLQDQKLLRRLQGSGNYINI | -0.264 |
| HMFPDLSPEQQRIVDVLTKSNDLQLNQLSVKTGIPIGDITSILFQMEMMGVVKPMAGGNYHLL | -0.0768 |
| HMDKSPVLQLNRDVPAGQQISADDFRTVEIGADGAFRSVPSSDLNAMVGSYAKVRLIAGTLLAREALQSG | -0.0884 |
| HMSKTEEIAYTTFVKYLENKDIEEVYLGNNAKIKVILKDGREMITDNPRTADFKKDLLLHDIKVVEKT | ≥ 0.43 |
| HMNVEGEVVVPNVIGRTMKDVAVILSDLGLRMEAEGTGVAKSSQPQHGTSVKRGTVVQVRFEPLSVN | -0.201 |
| HMRNSSLQTDLELRAYVIDGLNHFWTPEEIAGRWSLAHPDRPVSFATIYRHIKRKLLPGIEPKTHLRRRGK | ≥ 0.43 |
| HMTEALEFTVEDLRMAGLVNSSFSRRRRELFSEKLGIGYGNGKSLLKKLNGYGITREEFNGAIQSLSD | -1.3 |
| HMSDESALLELVKQIIADNPKAVEEIRAGKEKAMGFLIGQAMKASRGSANPQIISRLVREQLG | 0.0495 |
| HMTEKMILKWKEALERMNDDFTTKDWLNVVIHEMGKSERTAYGWLSDMKRSGIIKDLGYGSWLKVLE | -0.2 |
| HMNPIEAQIEELKNKDQKTAYQALKHLLAISETRAEVSYYFDRFVALLQDPQSYVRTRGLLLIGA | 0.0533 |
| HMKSAIKQNILLYLSNKGVTSYEFYKISGVTRGILQQSNGISEDNIAKFLAYAPDVNIEWLLTGKGDMLKH | -0.325 |
| HMTRTEYMAQLEKYLKKLPHKEFQEAITFFNEYFDEAGPEKETAIMEELGSPKEAASELITNILNRHI | -0.101 |
| HMGQKMLTIELQEKVNKMPDNLASYDLKLSADGMSLIYKYSLKSERTGITALLQELKNAGLVMRDLKTEQ | -0.302 |
| HMAHKYYSIMRPVSIGTFPDNGTILGIVNFDTRQMVESIGKMAWGYINYGKPLTEKQISDYELVAE | 0.361 |
| HMDSEKVLTNLKEELVLQLSNIEPYGYVPSQYWYSKVQRVQSVQELGKYVDGDLEAFVMKYAEDWESQK | -0.951 |
| HMQLKFTDLRKEILRMIWEGHGPQKAYDLLNKLQQTNPSAKPATVYRALDFLIGNGFIHKVASLNAFVG | -0.942 |
| HMYNPAYDAEIKVILELARHGYWEEARERADELLKAAPDDTGVKRIQTWVRQQEQRMREQAIEDSIRA | -0.206 |
| HMRPTDVLNYDESMRILNFSNNRVGFKHLMDAKGIEQVIFKNRKIGYRKSEILALKSELEAEQK | -0.0346 |

| Sequence | soluble fraction (log2) |
| --- | --- |
| HMDATFKVRVSVPDLNIRSGPGTNYAATGRFTGVGVFTITAVQSGQGSSSGWGKLKSGAGWIALDYAKR | 0.341 |
| HMAPLQDENGDLTFSYNGKTYTVNVNSEEDRNSFAEDFNKENGKKFSWFKERAGLQHYVFYDTEM | -0.918 |
| HMKEADVRKNEILDAAGILFSEKGYDNTSVTDIMNAVGFAKGTLYHHFKSKEDIMDALIKRQTD | -0.61 |
| HMFTYEETIGKSADVYLTIPALKAGKGKIIISVRGSVHELDAMTNNAEKISTGAVVKIVRIEHGNILLVEN | -0.44 |
| HMNIWNEWAFKKWIESDEYTGPDMTDFGHRTLVDEEFSKQYKEQMSLFKERVLTDDEFSAKYGDL | -2.07 |
| HMPPNHADLKSSGLKATLPRLKILEIFQNSQVRHLSAEDVYKLLLAENLDVGLATVYRVLTQFEQAGL | -0.511 |
| HMEDEEILNEIRHTEQYVYYFGNYIMEHHVSRGLSKEKVIASLARELQIEIADIREDFDGMIEQIKTNILN | -0.416 |
| HMSNPADDVVDLLRQLRLPHMRAAAPELLATAKAQRWDPAEAIRALLTEELAGRQASSINARRK | -0.226 |
| HMLPIGSSREQVISSLNKMHQDYKEEGNFIYAGYFKQGLPLVPSPRISIALQFNETAHLEKIDATLNYV | -0.467 |
| HMSTKLLEVNIFDDSKWVNKTIMDSDIPEDILIVMIKRGDEVIVPKGSTIINKGDILVLSANNFDNLLN | -1.97 |
| HMAQLPADMSRVKSADVSDAQLREFVQKAQASGQTETQLFREFSRRGMPTNEINILRSRMVGLQNN | 0.0928 |
| HMPHFGVVLQMDDWKTLRDRLEARDDIDWVMKPNLRFEGQPGEQATLFIRDPSGNALEFKGFADLSQVF | -1.64 |
| HMAAAQILRAAVLRVPAEETMRFVTETPELRRYLGASLGPTAAIVRPGQEQNLAAALQSHGILVEFDE | 0.106 |
| HMLPTVSITGHIFIRSGSPLNRIFVGEKIYHVGDHIDRDWVIESIGIDTLTIRSGTLSTQLPL | 0.034 |
| HMDLEELSNKMNNVFESLSSDLRDIIIMSDIEGLSYEEISHKINIPIGTVRSRLHRARDLMVRVIKEN | -0.713 |
| HMDDISLEEIKYISSKLETKVNEIEELLVRYYDGETNEAEEKELKEFFAQADVPAHLLAEKRLFMQLASQ | -0.324 |
| HMGGKWKPIILYYININSVARYSELKRFIPSINERMLTRQLRELEEDNLIERKVYPIVPPKVEYRLTEYGK | 0.0222 |
| HMNGDWISARQEYYIRGLWDLASRAKDEASLQAMLQRIAGVTQIEWISKEKATKVILALRDIAKK | -0.154 |
| HMDSPVLTAEIKALIDKELEQNAVKLATGLKKQRKRATDIHDALIRQGHEVSYRTVVRYIRNKTAQTS | ≥ 0.43 |
| HMGAYIPSYAPVDINAATHTVVRGDTVYNISKRYHVSQEDFRAWNGMADNTLSIGQVVKVKPAGYTAPK | 0.22 |
| HMVAMGQRVVPLTHLSIDDVRRLLESTYGKDSGIEVTKPGTAAKGVIVTAPRTELDGIVALVKQA | 0.0822 |
| HMLKLSGEESQQLALRLREELARRRITRQGLADAAKISISTLEQVLAGRRTFTLATIVRLEEGLGIKLL | 0.387 |
| HMIEEIAVPEILGMQEEEAKAKIEGLGLVFNVTDRVKSNEYEKGEVMYQSVGPDDTTVKSGYPINVTISEG | -0.162 |
| HMNVVDTGTDANYRVKISAVNLNMRLGPSTSYKSKGYITPGNYTIIKTSGDWGKVKETGYWVALKYTSKIN | 0.175 |
| HMSNLLKNILDVLEKEGPLKARKIALLLDSTRTTITHTTINSELYKALDLEGLTKNEQNIWSYVT | -0.389 |

| Sequence | soluble fraction (log2) |
| --- | --- |
| HMPLEKGVVILDVTPSSAKVAVDGTSVETTYPLRLSAGLHQLSAEADGYDSITEYFKVETEKTTVTLDLSK | 0.234 |
| HMHLPDNAVSIISELKMTPEEVLELIGKLPHDFLFLPYSQRKKIIVDLIPNKDYKLLMSLIKKFML | -0.536 |
| HMSFPDTYFKGNKVIGLSYNDLKKFLNNAGYSKFDEEVEEWGEKRVSIEDDMVDFYLEDDKVVSI | -0.356 |
| HMAKPVNISAEPYHYDPTRFRVTFELPRLSDQPRKRIRKVAPAGLDREQALAWAKRLEREVLHELLR | -0.144 |
| HMQITSTDEIEKMIDELIAANPEQTKQYQNGNHKVAGWFVGQMMKASKGKANPQMVNNLLQKKL | 0.166 |
| HMKSAYADVAIAKVQDYVNVRAENNEDSEVLGKLYNNSAATVLETTDDGWYKISSGSVTGYVKSEYVVVG | -1.04 |
| HMEIPTPAELREKRIRMGLKQADVARMAGISQSMVARIESGSVDPRVSTLAKIVEVLQAAER | 0.185 |
| HMNINVRNTGIKAVENNIINLSSDQRTFTWASNDRKLITVPFDENPYSALAAWFKTDEGIEVYQTIEKKL | -0.294 |
| HMNGAAAEQARKQLMTALKASEFIAQDKLDEWLDALALPQEKRSAIIDAVDELDYEEAISELEN | -0.2 |
| HMGVLSPRQSQILALVAQGLGNREIAERLHIAPTTARDHVQAIMRRLNVNSRAAAAVMGVKLGLI | 0.085 |
| HMLRDTTLLHIDSIVRDGSTAMANITVRDEGTDLEFPLQLRMERGDMGWQVVRIVNYRAYLEAVQKA | -0.59 |
| HMTNKYSSLVIGTVKTIMEEDQYKNLMGPPLKKEIIKQVDKFTNALPIEFDQNDKDFYVKKILINL | -0.299 |
| HMHAPIAELKKVFKEEFADQEVTVRQLAGSVLLSGNVKTAELRENLESVAKQFFPRVINNLKLI | 0.0685 |
| HMKRSVIVTAERAEVRQKADEGSALVFEAEKNVSLEYLEAAPGGWVKVRHLDGQSGFVRGNQI | -0.901 |
| HMAKVSVNIILKDGVDQTTFVNDVTSNTEVDLKNQLISLPQMVVLSVEEDYINTLKSHSSISILELDE | -0.541 |
| HMKQTMIVVMEKDAPQSQIDDMVKRIEGLGLKAHTIVGTQRTVVAAIGEKREDTRESLAGSPGVAEVVPIL | -0.137 |
| HMREVTVGSAVRLKKGAKTYSGGSLASFVYERNHQVTQLSGDRAVISFKGTVVAAVHKDDLIL | -0.0626 |
| HMAKPVKSPLPGSVIKVAVKVGQQIKRGDLLLTLESMKMENSILAEKDGVVKNIHVQAGQSVMQDDLLLDI | -0.957 |
| HMKNDKLLIFMELKGISRTQLSKSTGIPASTLGRIINGDVQKIKAVYMEAIANALDTSIHTIFDV | -0.352 |
| HMQAGILTDTAAKNARIKKIDTERLEAELDQKRIVIVTGFQGVDRNQNITTLGRGGSDTSAVALAAAVSIT | 0.0198 |
| HMEWTVEKQAAATLNAWMRKNSEMTSEKKVAVAAGIGPATVNRIMKAEVSTTIGVLSSLARAFGHEAYEMI | 0.114 |
| HMSLTGFYNLTFKQADRLSVIDEAGEEVYKQAIAMGSTTKTIDLSALNAGVYFIRIYNGEVIAQEKIVLN | -0.958 |
| HMDSVFGVVTSSDGVKLRKEASTISKVLTVLPYGTEVDVDRIGSEWIRIVTDGGQKGYVSADYLAVREGER | -0.1 |
| HMFELVKISENIPIRDLAETLKTTPNEIIKELMVFGVLANINQTLNFDLASKVADKLGFEVELL | -0.363 |
| HMTDFSDLSFKYNSEEKDVLNSINLKINGGEMTSLVGHSGAGKTTILNLIPRFYEKSKGDISIDGQSIY | -0.172 |
